In the supplement of paper PMC10567573:

B1: PCDHGA10 (parent)
chain: FGIEIEVTDINDNAPKFQAENLDV

Variants of: B1
Assay: protein stability index of a GFP-peptide fusion (GPS, HEK-293T) (PSI 1-6); higher = more stable
Conditions: c terminus: a fixed tail appended
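Further: lentivirally expressed fusions sorted by FACS into six bins by GFP to DsRed ratio, PSI derived from sequencing read proportions per bin multiplied by bin number.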

| Variant | protein stability index |
| --- | --- |
| FGVEIEVTDINDNAPKFQAENLDV [I3V] | 3.65 |
| FGKEIEVTDINDNAPKFQAENLDV [I3K] | 4.73 |
| FGHEIEVTDINDNAPKFQAENLDV [I3H] | 4.88 |
| FGNEIEVTDINDNAPKFQAENLDV [I3N] | 4.68 |
| FGCEIEVTDINDNAPKFQAENLDV [I3C] | 4.43 |
| FGLEIEVTDINDNAPKFQAENLDV [I3L] | 4.08 |
| FGWEIEVTDINDNAPKFQAENLDV [I3W] | 3.62 |
| FGQEIEVTDINDNAPKFQAENLDV [I3Q] | 4.79 |
| FGFEIEVTDINDNAPKFQAENLDV [I3F] | 2.71 |
| FGSEIEVTDINDNAPKFQAENLDV [I3S] | 5.2 |
| FGGEIEVTDINDNAPKFQAENLDV [I3G] | 4.73 |
| FGYEIEVTDINDNAPKFQAENLDV [I3Y] | 3.84 |
| FGEEIEVTDINDNAPKFQAENLDV [I3E] | 5.11 |
| FGMEIEVTDINDNAPKFQAENLDV [I3M] | 3.96 |
| FGREIEVTDINDNAPKFQAENLDV [I3R] | 4.52 |
| FGDEIEVTDINDNAPKFQAENLDV [I3D] | 4.76 |
| FGAEIEVTDINDNAPKFQAENLDV [I3A] | 4.52 |
| FGTEIEVTDINDNAPKFQAENLDV [I3T] | 4.65 |
| FGPEIEVTDINDNAPKFQAENLDV [I3P] | 4.96 |
| FQIEIEVTDINDNAPKFQAENLDV [G2Q] | 2.09 |
| FCIEIEVTDINDNAPKFQAENLDV [G2C] | 2 |
| FRIEIEVTDINDNAPKFQAENLDV [G2R] | 1.49 |
| FMIEIEVTDINDNAPKFQAENLDV [G2M] | 1.9 |
| FHIEIEVTDINDNAPKFQAENLDV [G2H] | 2.18 |

| Variant | protein stability index |
| --- | --- |
| FYIEIEVTDINDNAPKFQAENLDV [G2Y] | 3 |
| FFIEIEVTDINDNAPKFQAENLDV [G2F] | 1.86 |
| FLIEIEVTDINDNAPKFQAENLDV [G2L] | 2.17 |
| FDIEIEVTDINDNAPKFQAENLDV [G2D] | 2.72 |
| FIIEIEVTDINDNAPKFQAENLDV [G2I] | 2.57 |
| FPIEIEVTDINDNAPKFQAENLDV [G2P] | 4.63 |
| FEIEIEVTDINDNAPKFQAENLDV [G2E] | 1.88 |
| FNIEIEVTDINDNAPKFQAENLDV [G2N] | 1.9 |
| FKIEIEVTDINDNAPKFQAENLDV [G2K] | 1.52 |
| FAIEIEVTDINDNAPKFQAENLDV [G2A] | 2.02 |
| FSIEIEVTDINDNAPKFQAENLDV [G2S] | 1.92 |
| FVIEIEVTDINDNAPKFQAENLDV [G2V] | 1.64 |
| FTIEIEVTDINDNAPKFQAENLDV [G2T] | 1.78 |
| FGIEIIVTDINDNAPKFQAENLDV [E6I] | 2.05 |
| FGIEISVTDINDNAPKFQAENLDV [E6S] | 2.69 |
| FGIEIPVTDINDNAPKFQAENLDV [E6P] | 4.08 |
| FGIEIRVTDINDNAPKFQAENLDV [E6R] | 1.7 |
| FGIEIWVTDINDNAPKFQAENLDV [E6W] | 2.9 |
| FGIEIAVTDINDNAPKFQAENLDV [E6A] | 3.25 |
| FGIEILVTDINDNAPKFQAENLDV [E6L] | 1.86 |
| FGIEIVVTDINDNAPKFQAENLDV [E6V] | 2.04 |
| FGIEICVTDINDNAPKFQAENLDV [E6C] | 1.58 |
| FGIEIYVTDINDNAPKFQAENLDV [E6Y] | 2.23 |
| FGIEIQVTDINDNAPKFQAENLDV [E6Q] | 2.39 |

| Variant | protein stability index |
| --- | --- |
| FGIEITVTDINDNAPKFQAENLDV [E6T] | 1.98 |
| FGIEIDVTDINDNAPKFQAENLDV [E6D] | 3.62 |
| FGIEIMVTDINDNAPKFQAENLDV [E6M] | 1.41 |
| FGIEIGVTDINDNAPKFQAENLDV [E6G] | 3.56 |
| FGIEIFVTDINDNAPKFQAENLDV [E6F] | 2.43 |
| FGIEIKVTDINDNAPKFQAENLDV [E6K] | 2.77 |
| FGIEINVTDINDNAPKFQAENLDV [E6N] | 3.02 |
| FGIEIHVTDINDNAPKFQAENLDV [E6H] | 2.19 |
| KGIEIEVTDINDNAPKFQAENLDV [F1K] | 4.39 |
| IGIEIEVTDINDNAPKFQAENLDV [F1I] | 2.57 |
| TGIEIEVTDINDNAPKFQAENLDV [F1T] | 4.93 |
| LGIEIEVTDINDNAPKFQAENLDV [F1L] | 3.05 |
| DGIEIEVTDINDNAPKFQAENLDV [F1D] | 4.71 |
| AGIEIEVTDINDNAPKFQAENLDV [F1A] | 4.72 |
| SGIEIEVTDINDNAPKFQAENLDV [F1S] | 4.75 |
| GGIEIEVTDINDNAPKFQAENLDV [F1G] | 4.49 |
| QGIEIEVTDINDNAPKFQAENLDV [F1Q] | 4.58 |
| YGIEIEVTDINDNAPKFQAENLDV [F1Y] | 3.52 |
| NGIEIEVTDINDNAPKFQAENLDV [F1N] | 4.69 |
| VGIEIEVTDINDNAPKFQAENLDV [F1V] | 2.93 |
| PGIEIEVTDINDNAPKFQAENLDV [F1P] | 5.08 |
| MGIEIEVTDINDNAPKFQAENLDV [F1M] | 3.52 |
| RGIEIEVTDINDNAPKFQAENLDV [F1R] | 4.17 |
| CGIEIEVTDINDNAPKFQAENLDV [F1C] | 3.59 |

| Variant | protein stability index |
| --- | --- |
| WGIEIEVTDINDNAPKFQAENLDV [F1W] | 2.54 |
| HGIEIEVTDINDNAPKFQAENLDV [F1H] | 4.67 |
| EGIEIEVTDINDNAPKFQAENLDV [F1E] | 4.8 |
| FGINIEVTDINDNAPKFQAENLDV [E4N] | 3.34 |
| FGIWIEVTDINDNAPKFQAENLDV [E4W] | 2.5 |
| FGIYIEVTDINDNAPKFQAENLDV [E4Y] | 1.73 |
| FGIIIEVTDINDNAPKFQAENLDV [E4I] | 1.75 |
| FGIQIEVTDINDNAPKFQAENLDV [E4Q] | 2.47 |
| FGISIEVTDINDNAPKFQAENLDV [E4S] | 2.5 |
| FGIAIEVTDINDNAPKFQAENLDV [E4A] | 2.46 |
| FGILIEVTDINDNAPKFQAENLDV [E4L] | 2.28 |
| FGICIEVTDINDNAPKFQAENLDV [E4C] | 2.6 |
| FGIKIEVTDINDNAPKFQAENLDV [E4K] | 2.11 |
| FGIRIEVTDINDNAPKFQAENLDV [E4R] | 2.18 |
| FGITIEVTDINDNAPKFQAENLDV [E4T] | 2.12 |
| FGIFIEVTDINDNAPKFQAENLDV [E4F] | 1.66 |
| FGIDIEVTDINDNAPKFQAENLDV [E4D] | 3.44 |
| FGIGIEVTDINDNAPKFQAENLDV [E4G] | 3.42 |
| FGIPIEVTDINDNAPKFQAENLDV [E4P] | 4.33 |
| FGIHIEVTDINDNAPKFQAENLDV [E4H] | 2.2 |
| FGIVIEVTDINDNAPKFQAENLDV [E4V] | 2.24 |
| FGIMIEVTDINDNAPKFQAENLDV [E4M] | 1.73 |
